Data reported in article PMC9386465.
Like-named read-outs stand apart in the source and are kept apart here.

Assays:
[1] = molecular target: T1, ErmS (TlrA) rRNA adenine-N6 dimethyltransferase (Streptomyces fradiae, UniProt P45439 1-319); assay: stopped-flow fluorescence
T1 sequence: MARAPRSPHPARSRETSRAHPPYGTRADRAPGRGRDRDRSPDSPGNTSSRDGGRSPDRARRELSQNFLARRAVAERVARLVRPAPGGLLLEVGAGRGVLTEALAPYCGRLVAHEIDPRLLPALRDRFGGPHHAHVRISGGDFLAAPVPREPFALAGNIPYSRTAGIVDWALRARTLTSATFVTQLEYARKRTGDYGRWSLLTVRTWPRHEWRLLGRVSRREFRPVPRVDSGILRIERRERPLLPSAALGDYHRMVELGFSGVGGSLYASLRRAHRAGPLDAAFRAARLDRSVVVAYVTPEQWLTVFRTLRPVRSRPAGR

[2] = molecular target: T1, ErmS (TlrA) rRNA adenine-N6 …; assay: stopped-flow fluorescence; remark: listed apart in the source

Row | Binder | binding result [1] | binding result [2]
1 | GGCAAGACGGAAAGACCCCUAUCUGCC (structured_RNA, 2-aminopurine replaces A2054 (nt 7)) [2Ap2054] | binds | –
2 | GGCAAGACGGAAAGACCCCUAUCUGCC (structured_RNA, 2-aminopurine replaces A2058 (nt 11)) [2Ap2058] | – | binds
